Results from patent US20240270806A1 (Chugai, published 2024).
Changes are numbered by the printed parent chain. Numbers in names are those of the source.

What was measured:
[1] = target: T1, Human IL-12 receptor (human IL-12Rb1 and IL-12Rb2) (human, UniProt P42701 24-662; Q99665 24-862); assay: cell-based or functional assay
[2] = target: T1, Human IL-12 receptor (human IL-12Rb1 …); assay: cell-based or functional assay; remark: listed apart in the source
[3] = target: T1, Human IL-12 receptor (human IL-12Rb1 …); assay: cell-based or functional assay; remark: listed apart in the source
[4] = target: T2, Human IL-12 (human, UniProt P29460 23-328; P29459 23-219); assay: SPR, BIACORE T200, 37 degrees C, pH 7.4; antibody captured by anti-human Fc antibody, human IL-12 injected at 5 and 20 nM; 1:1 binding model
T2 construct: also called human Interleukin-12
T2 sequence (looked up) 1: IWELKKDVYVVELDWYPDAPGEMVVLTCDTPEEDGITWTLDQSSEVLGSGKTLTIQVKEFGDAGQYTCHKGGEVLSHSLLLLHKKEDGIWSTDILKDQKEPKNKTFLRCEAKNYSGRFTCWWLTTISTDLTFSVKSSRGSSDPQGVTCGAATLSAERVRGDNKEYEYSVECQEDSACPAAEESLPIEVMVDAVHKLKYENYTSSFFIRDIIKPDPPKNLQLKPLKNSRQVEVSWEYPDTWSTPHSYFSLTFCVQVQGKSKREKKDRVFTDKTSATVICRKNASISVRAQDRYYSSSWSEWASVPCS
T2 sequence (looked up) 2: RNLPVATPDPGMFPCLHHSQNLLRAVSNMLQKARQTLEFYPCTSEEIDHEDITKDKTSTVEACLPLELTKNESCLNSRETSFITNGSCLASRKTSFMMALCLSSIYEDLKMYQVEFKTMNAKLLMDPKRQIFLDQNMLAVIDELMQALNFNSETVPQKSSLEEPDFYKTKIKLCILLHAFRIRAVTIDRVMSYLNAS
Method: The affinity of anti-IL12 antibodies binding to human IL-12 at pH 7.4 was determined at 37 degrees C. using BIACORE® T200 instrument (GE Healthcare). […] (GE Healthcare) was immobilized onto all flow cells of a CM4 sensor chip using amine coupling kit (GE Healthcare). All antibodies and analytes were prepared in ACES pH 7.4 containing 20 mM ACES, 150 mM NaCl, 0.05% Tween 20, 0.005% NaN₃. Each antibody was captured onto the sensor surface by anti-human Fc antibody. Antibody capture levels were aimed at 50 resonance unit (RU). Human IL-12 was injected at 5 and 20 nM, followed by dissociation. Sensor surface was regenerated each cycle with 3M MgCl₂.

T1 sequence (Q99665 24-862, chain 2 of 2, other chains not shown): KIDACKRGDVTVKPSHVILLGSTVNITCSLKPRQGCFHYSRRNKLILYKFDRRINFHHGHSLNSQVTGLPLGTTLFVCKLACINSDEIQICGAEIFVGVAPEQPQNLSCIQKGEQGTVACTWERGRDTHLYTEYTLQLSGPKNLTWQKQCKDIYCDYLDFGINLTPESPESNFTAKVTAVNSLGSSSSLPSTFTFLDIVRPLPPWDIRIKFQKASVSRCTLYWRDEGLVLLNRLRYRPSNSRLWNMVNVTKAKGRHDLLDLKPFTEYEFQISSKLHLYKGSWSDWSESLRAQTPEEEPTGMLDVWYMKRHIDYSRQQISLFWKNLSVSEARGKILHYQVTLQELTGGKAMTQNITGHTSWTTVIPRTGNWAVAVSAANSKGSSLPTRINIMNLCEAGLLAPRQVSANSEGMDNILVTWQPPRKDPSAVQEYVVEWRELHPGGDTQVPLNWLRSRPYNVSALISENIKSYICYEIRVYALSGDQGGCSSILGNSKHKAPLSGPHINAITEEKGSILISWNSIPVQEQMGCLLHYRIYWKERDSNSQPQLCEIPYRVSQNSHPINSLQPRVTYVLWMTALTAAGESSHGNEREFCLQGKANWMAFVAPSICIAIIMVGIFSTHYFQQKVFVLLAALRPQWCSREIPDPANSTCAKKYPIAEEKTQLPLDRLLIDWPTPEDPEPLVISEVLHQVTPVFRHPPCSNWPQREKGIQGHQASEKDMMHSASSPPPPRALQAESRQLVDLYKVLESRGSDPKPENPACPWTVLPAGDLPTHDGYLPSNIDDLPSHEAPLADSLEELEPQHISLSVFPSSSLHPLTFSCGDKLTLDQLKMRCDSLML

B1: hIL12_His tag (ligand)
chain 1: T2 sequence (looked up) 1
chain 2: T2 sequence (looked up) 2
B1 was tested, and the “EC50 (read off the curve), IL-12 luciferase reporter assay (+ MTSP1)” value [1] was roughly 200 pM, the “EC50 (read off the curve), IL-12 luciferase reporter assay (without protease)” value [1] was roughly 200 pM and the “EC50 (read off the curve), IL-12 luciferase reporter assay (+ MTSP1) [all three graphs]” value [2] was roughly 200 pM. For the same binder, the “EC50 (read off the curve), IL-12 luciferase reporter assay (without protease) [all three graphs]” value [2] was roughly 200 pM and the “EC50 (read off the curve), IL-12 luciferase reporter assay (without protease) [left graph]” value [3] was roughly 100 pM.

B2: Anti-IL-12 antibody, Ab1, comprising VH release enhancing mutations (Ab101H89-12aa0054-C8/Ab102L69-SK1) (antibody, V domains shown)
VH: QVQLVQSGAEVKKPGSSVKVSCKASGGTFSDYYLHWSRQAPGQGLEWMGWIDPENGDTEYAPKFQGRVTITADESTSTAYMELSSLRSEDTAVYYCARNKELRYIDVWGQGTLVTVSS
VL: DIVMTQSPLSLPVTPGEPASISCRASQSISINLHWYQQKPGQAPRQLIAFASQSISGVPSRFSGSGSGTDFTLTISSLQPEDFATYYCQQSNSFPLTFGQGTKVEIKR
notes: Homodimer of a light and a heavy chain; Mutations V37S, F100aI / L46Q, Y49A; also called Ab101H89/Ab102L69
B2 gave a Kd [4] of 6520 pM.

B3: Anti-IL-12 antibody Ab1, variable region variant Ab101H89/Ab102L994 (antibody, V domains shown)
VH: B2 VH
VL: B2 VL with N92Y
notes: Mutations V37S, F100aI / L46Q, Y49A, N92Y
B3 showed a Kd [4] of 3510 pM.

B4: Anti-IL-12 antibody Ab1, variable region variant Ab101H725/Ab102L1087 (antibody, V domains shown)
VH: B2 VH with G56Q, N99T
VL: B2 VL with A25S, Q27D
notes: Mutations V37S, G55Q, N95T, F100aI / A25S, Q27D, L46Q, Y49A
Work on B4 yielded a Kd [4] of 1270 pM.

B5: Anti-IL-12 antibody Ab1, variable region variant Ab101H/Ab102L (antibody, V domains shown)
VH: B2 VH with S37V, I105F
VL: B2 VL with Q46L, A49Y
In the case of B5, the Kd [4] is reported as 1450 pM and the kon [4] is reported as 1.9e+06 M⁻¹ s⁻¹.
